Source: doi:10.1101/145276

Biological target: T1, Mmi1 YTH domain (longer construct) (Schizosaccharomyces pombe, UniProt O74958 326-488)
T1 sequence: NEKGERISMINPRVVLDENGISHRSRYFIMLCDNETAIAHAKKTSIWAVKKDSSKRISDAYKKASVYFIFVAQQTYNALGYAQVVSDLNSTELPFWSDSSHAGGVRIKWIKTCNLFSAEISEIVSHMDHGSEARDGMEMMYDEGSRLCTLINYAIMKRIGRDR
Assay: ITC

Binder: AUUAAACA (ssRNA) [DSR 8-mer]
- binding result: binds
